The target of one experiment is T1, trypsin (Bos taurus, UniProt P00760).
T1 construct: gene PRSS1
T1 sequence (P00760 24-246): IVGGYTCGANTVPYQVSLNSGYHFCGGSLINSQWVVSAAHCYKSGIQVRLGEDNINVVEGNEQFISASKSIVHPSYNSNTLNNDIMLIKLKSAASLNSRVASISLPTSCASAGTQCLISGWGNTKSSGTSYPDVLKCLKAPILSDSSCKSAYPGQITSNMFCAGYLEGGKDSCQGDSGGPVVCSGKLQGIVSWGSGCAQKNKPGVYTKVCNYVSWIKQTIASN
Nature of the experiment: Serine protease inhibition test, trypsin (chromogenic substrate). The note with it: recombinant protein 1, 100, 200 nM; protease 100 pM; 6 h at 37° C. It counts as biochemical. As for the experimental part:
(§1) (A) Inhibition of serine proteases through recombinant protein. Serine protease (100 pM; thrombin, plasmin, trypsin or factor Xa) was incubated with recombinant protein (1, 100 and 200 nM) in phosphate buffer 50 mM containing NaCl 150 mM and 0.1% of PEG 6000, pH 7.4 for 6 h at 37° C. Following addition of chromogenic substrate corresponding to reaction mixture, hydrolysis thereof was monitored at 405 nm. For factor Xa activity, buffer contained phosphatidylserine and phosphatidylcholine 50 μM. […] (B) Typical curves for hydrolysis of chromogenic substrate S-2238 (15 μM) by thrombin 0.1 nM in absence (trace a) or presence of recombinant protein (trace b, 15 pM; trace c, 30 pM; trace d, 60 pM and trace e, 100 pM) in phosphate buffer 50 mM containing NaCl 150 mM and 0.1% of PEG 6000, pH 7.4 at 37° C. (C) Residual activity of thrombin in presence of increasing concentration of recombinant protein. (D) Dose-response curves for thrombin inhibition by recombinant protein. Percentage of thrombin inhibition was plotted versus the concentration record of recombinant protein. Experimental condition of (C) and (D) is the same as in (B).
(§2) The first performed experiment was the test of serine proteases inhibition through recombinant protein. […] Hydrolysis of a chromogenic substrate through serine proteases in the presence and absence of recombinant protein was monitored in a spectrophotometer way. […]

Experiment [1] addresses T2, plasmin (Homo sapiens, UniProt P00747).
T2 construct: Serine protease (100 pM; thrombin, plasmin, trypsin or factor Xa) was incubated with recombinant protein
Nature of the experiment: Degradation of recombinant protein by plasmin (SDS-PAGE and residual thrombin inhibition). It counts as in vitro ADME. As for the experimental part:
(§3) Recombinant protein (10 μM) was incubated with or without serine protease 1 μM (thrombin, plasmin, trypsin or factor Xa) in phosphate buffer 50 mM containing NaCl 150 mM and 0.1% of PEG 6000, pH 7.4 for 4, 6, 7 or 18 h at 37° C. Reaction mixtures (20 μl) were split by SDS-PAGE. (A) hydrolysis SDS-PAGE (15%) of recombinant protein by serine proteases following 6 h of incubation. (B) Percentage of thrombin inhibition by recombinant protein following 6 h of incubation with serine protease (see experimental procedures). (C) hydrolysis SDS-PAGE (15%) of recombinant protein by serine proteases following 18 h of incubation. (D) Percentage of thrombin inhibition by recombinant protein following 18 h of incubation with serine protease (see experimental procedures). Numbering of (B) and (D) corresponds to numbering of (A) and (C), respectively, and recombinant protein control is represented by CTRL. Recombinant protein (strip 1); thrombin (strip 2) and thrombin with recombinant protein (strip 3); plasmin (strip 4) and plasmin with recombinant protein (strip 5); trypsin (strip 6) and trypsin with recombinant protein (strip 7); factor Xa (strip 8) and factor Xa with recombinant protein (strip 9) and protein marker (strip 10; in A). (E) Identification of cleavage sites of thrombin in recombinant protein following 7 h of incubation. (F) Identification of cleavage sites of factor Xa in recombinant protein following 4 h of incubation. Cleavage sites of thrombin and factor Xa in recombinant protein sequence are shown in FIGS. S1 and S2, respectively. Experimental procedure for (C), (D), (E) and (F) was the same as for (A) and (B), except the incubation time and the type of serine protease used. FIG. 5 discloses “GKPQG” as SEQ ID NO: 18, “MPKGG” as SEQ ID NO: 19, and “SDAVH” as SEQ ID NO: 20.
(§4) Afterwards, it was determined whether serine proteases, like thrombin, plasmin, factor Xa and trypsin, hydrolyze recombinant protein. […] Upon addition of chromogenic substrate S-2238, the hydrolysis thereof by thrombin was monitored in spectrophotometer way. […]

Experiment [2] addresses T2, plasmin. In words: Serine protease inhibition test, plasmin (chromogenic substrate). It is filed as biochemical. To be noted: recombinant protein 1, 100, 200 nM; protease 100 pM; 6 h at 37° C. As for the experimental part: as §1, §2
A further experiment deals with thrombin (Homo sapiens, UniProt P00734). Nature of the experiment: Degradation of recombinant protein by thrombin (SDS-PAGE and residual thrombin inhibition). Also noted: Brown and cyan colors represent heavy and light chain of thrombin respectively. It is filed as in vitro ADME. The method, then:
as §3, §4

Another experiment has as its system isolated human plasma. Nature of the experiment: Prothrombin time (PT) in isolated human plasma. To be noted: plasma of healthy human volunteers, incubation 3 min. at 37° C. It counts as biochemical. The method, then: Plasma was obtained from blood of healthy human volunteer and incubated with different concentrations of recombinant protein. APTT, PT and TT were determined like experimental procedure. (A) Activated partial thromboplastin time (B) prothrombin time and (C) thrombin time. Ctrl is related to plasma and Sal is related to plasma plus saline.
Finally, PT, aPTT and TT were assessed in isolated plasma of healthy human volunteers following incubation with recombinant protein for 3 min. at 37° C. […] Maximum test reading for aPTT was achieved following 12 nM, while for PT that was achieved following 6 nM of recombinant protein (FIGS. 11A and 11B).

T2 sequence (P00747 581-810 limits assumed, species assumed): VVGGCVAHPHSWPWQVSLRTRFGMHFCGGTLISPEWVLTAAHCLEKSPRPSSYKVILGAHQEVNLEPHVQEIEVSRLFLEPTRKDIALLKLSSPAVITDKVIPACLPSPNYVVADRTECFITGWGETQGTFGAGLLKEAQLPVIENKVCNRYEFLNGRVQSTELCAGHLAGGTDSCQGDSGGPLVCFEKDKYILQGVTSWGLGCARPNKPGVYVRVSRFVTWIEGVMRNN
T2 sequence (P00747 97-580 limits assumed, species assumed): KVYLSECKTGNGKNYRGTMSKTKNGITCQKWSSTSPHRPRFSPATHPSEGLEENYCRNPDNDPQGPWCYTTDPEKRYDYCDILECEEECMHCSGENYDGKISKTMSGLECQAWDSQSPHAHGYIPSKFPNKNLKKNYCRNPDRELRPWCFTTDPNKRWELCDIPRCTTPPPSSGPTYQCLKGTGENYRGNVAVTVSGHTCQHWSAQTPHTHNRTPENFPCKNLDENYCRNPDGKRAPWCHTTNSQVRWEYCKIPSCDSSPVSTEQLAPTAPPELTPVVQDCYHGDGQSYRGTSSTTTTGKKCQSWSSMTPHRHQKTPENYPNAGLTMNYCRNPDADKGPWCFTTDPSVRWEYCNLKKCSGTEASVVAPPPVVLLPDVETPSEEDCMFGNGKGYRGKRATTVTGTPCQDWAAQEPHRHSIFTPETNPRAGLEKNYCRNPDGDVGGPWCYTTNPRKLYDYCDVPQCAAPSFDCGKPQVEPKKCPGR

B1: GKPQGHPHDALEARSDAVHTAVPKMPKGGHGGFEPIPIDYDERALEARSDAVHTAVPKMPKGGLGGFEPIPIDYDERALEARSDAVHTAVPKMPKGGHGGFEPIPIDYDERALEARSDAVHTAVPKMPKGGHGGFEPIPIDYDERALHALEHHHHHH (protein)
chain: GKPQGHPHDALEARSDAVHTAVPKMPKGGHGGFEPIPIDYDERALEARSDAVHTAVPKMPKGGLGGFEPIPIDYDERALEARSDAVHTAVPKMPKGGHGGFEPIPIDYDERALEARSDAVHTAVPKMPKGGHGGFEPIPIDYDERALHALEHHHHHH
modifications: Sculptin recombinat protein
notes: recombinant His-tagged protein modified from tick sculptin, expressed in E. coli
Regarding B1, the inhibition of trypsin entry with trypsin is “did not inhibit”. Besides, in the experiment with plasmin [1] (10 μM protein with 1 μM plasmin, 6 h at 37° C.), the “SDS-PAGE strip of 20-kDa (non-digested recombinant protein)” value is recorded as “completely disappeared”. The “SDS-PAGE strip of 20-kDa (recombinant protein monomer)” value with plasmin [1] (10 μM protein with 1 μM plasmin, 18 h at 37° C.) is on record as “completely disappeared”; with thrombin (10 μM protein with 1 μM thrombin, 18 h at 37° C.) it was “completely disappeared”. The “thrombin inhibition after incubation” value was “did not inhibit thrombin” with plasmin [1] (after 18 h incubation with plasmin, diluted to 100 pM) and “did not inhibit thrombin” in the experiment with thrombin (after 18 h incubation with thrombin, diluted to 100 pM). Further, in the experiment with plasmin [2], the inhibition of plasmin result is “did not inhibit”. The “SDS-PAGE strip intensity of 20-kDa (non-digested recombinant protein)” value in the experiment with thrombin (10 μM protein with 1 μM thrombin, 6 h at 37° C.) is recorded as “decreased”. For the same molecule, the PT entry with isolated human plasma is on record as “prolonged by recombinant protein in concentration-dependent way”. In addition, the “concentration at which maximum test reading for PT was achieved” value with isolated human plasma is 6 nM.

For the origin of these results see US12187785B2, “Recombinant protein and fragments thereof, method for producing said recombinant protein, synthetic gene and use of sculptin or recombinant protein for preparing a medicament or pharmaceutical composition for the prophylaxis and/or treatment of thromboembolic diseases or as a direct and specific …” (priority 2017, dated 2025).
